The source of these data is PMC9135616 (Biophysics and Physicobiology, 2022).

What all share (assay): SEC
(In general: In gel filtration, larger molecules generally elute earlier.)

The target in test [1] is T1, KaiC^S157P (Synechococcus elongatus PCC 7942, UniProt Q79PF4 1-519, S157P).
T1 sequence: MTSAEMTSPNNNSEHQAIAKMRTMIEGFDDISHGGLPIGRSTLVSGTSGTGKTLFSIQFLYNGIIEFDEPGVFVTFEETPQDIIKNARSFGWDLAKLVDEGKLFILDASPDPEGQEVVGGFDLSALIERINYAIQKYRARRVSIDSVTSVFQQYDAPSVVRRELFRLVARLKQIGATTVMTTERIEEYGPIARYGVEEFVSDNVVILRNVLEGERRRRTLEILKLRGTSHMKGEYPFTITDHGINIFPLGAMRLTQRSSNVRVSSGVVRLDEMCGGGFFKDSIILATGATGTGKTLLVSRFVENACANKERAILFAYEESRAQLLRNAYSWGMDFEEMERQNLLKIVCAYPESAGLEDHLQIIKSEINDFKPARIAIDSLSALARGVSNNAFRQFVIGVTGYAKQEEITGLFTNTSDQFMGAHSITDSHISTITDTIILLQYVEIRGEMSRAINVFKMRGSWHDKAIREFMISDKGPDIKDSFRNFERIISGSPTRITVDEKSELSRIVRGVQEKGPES

The target of test [2] is T2, KaiC-pSpT-mimicking S431D/T432E KaiC mutant (Synechococcus elongatus PCC 7942, UniProt Q79PF4 1-519, S431D | T432E).
T2 sequence: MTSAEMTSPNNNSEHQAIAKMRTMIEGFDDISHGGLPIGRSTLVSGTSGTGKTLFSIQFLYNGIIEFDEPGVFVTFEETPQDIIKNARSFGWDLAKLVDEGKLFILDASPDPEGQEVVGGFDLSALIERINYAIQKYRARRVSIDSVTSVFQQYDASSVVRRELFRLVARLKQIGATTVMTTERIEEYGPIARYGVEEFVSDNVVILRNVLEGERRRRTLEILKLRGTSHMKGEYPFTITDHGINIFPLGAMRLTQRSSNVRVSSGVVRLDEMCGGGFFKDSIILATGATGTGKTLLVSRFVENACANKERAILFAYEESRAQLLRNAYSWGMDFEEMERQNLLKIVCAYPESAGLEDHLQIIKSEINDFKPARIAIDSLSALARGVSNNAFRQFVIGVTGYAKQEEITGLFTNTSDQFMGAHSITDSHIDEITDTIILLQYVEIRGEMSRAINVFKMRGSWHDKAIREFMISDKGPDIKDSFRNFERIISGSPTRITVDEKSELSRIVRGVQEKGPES

Test [3] has as its target T3, KaiC^F470Y (Synechococcus elongatus PCC 7942, UniProt Q79PF4 1-519, F470Y).
T3 sequence: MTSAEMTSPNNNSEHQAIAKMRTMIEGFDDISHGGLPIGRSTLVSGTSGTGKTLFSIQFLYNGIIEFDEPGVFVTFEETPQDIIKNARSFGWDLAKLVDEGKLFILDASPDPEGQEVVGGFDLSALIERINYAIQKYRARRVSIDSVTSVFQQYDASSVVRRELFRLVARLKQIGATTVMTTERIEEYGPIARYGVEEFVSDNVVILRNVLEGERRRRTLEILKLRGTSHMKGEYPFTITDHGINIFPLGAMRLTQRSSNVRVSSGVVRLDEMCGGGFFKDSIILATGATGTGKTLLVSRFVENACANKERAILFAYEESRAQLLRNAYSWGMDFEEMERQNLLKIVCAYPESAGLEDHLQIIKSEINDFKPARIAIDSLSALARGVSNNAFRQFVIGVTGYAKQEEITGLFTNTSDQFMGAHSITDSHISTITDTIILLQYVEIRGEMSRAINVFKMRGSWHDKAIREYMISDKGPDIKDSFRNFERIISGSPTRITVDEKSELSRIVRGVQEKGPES

For test [4], the target named is T4, wild-type KaiC (Synechococcus elongatus PCC 7942, UniProt Q79PF4 1-519).
T4 sequence: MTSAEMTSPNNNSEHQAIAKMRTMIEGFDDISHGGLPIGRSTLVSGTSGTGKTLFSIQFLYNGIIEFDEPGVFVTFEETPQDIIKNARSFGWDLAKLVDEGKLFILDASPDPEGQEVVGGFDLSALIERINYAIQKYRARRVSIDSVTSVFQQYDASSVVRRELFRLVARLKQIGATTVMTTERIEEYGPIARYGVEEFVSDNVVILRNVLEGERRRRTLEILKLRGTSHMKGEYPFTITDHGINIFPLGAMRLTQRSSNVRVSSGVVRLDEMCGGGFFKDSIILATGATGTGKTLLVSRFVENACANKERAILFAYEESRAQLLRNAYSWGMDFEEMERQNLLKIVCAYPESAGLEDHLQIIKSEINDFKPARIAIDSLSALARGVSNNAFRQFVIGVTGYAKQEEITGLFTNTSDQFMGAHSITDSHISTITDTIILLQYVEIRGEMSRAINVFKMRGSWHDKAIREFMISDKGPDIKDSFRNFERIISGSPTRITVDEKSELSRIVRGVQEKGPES

In test [5] the target is T5, KaiC^C306A (Synechococcus elongatus PCC 7942, UniProt Q79PF4 1-519, C306A).
T5 sequence: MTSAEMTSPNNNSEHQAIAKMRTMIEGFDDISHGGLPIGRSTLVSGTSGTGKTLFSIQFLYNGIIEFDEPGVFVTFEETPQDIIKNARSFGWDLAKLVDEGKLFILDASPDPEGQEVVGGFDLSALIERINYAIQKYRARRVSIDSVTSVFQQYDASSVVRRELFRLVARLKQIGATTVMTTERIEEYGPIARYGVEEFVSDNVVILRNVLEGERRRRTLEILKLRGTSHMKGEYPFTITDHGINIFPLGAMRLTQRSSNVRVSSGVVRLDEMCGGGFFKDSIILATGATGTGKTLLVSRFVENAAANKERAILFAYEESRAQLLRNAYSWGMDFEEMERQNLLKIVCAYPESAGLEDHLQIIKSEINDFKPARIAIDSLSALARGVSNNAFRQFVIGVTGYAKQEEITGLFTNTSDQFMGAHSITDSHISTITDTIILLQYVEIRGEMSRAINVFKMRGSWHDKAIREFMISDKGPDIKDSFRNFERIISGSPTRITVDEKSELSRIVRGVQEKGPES

B1: KaiB (natural protein)
chain: MSPRKTYILKLYVAGNTPNSVRALKTLKNILEVEFQGVYALKVIDVLKNPQLAEEDKILATPTLAKVLPLPVRRIIGDLSDREKVLIGLDLLYGELQDSDDF
As for B1, the binding result in test [1], in test [3] and in test [5] was “binds” in each case. In addition, the dissociation rate constant (koff) (in general, the rate constant with which the complex falls apart) in test [2] was 1.56e-06 s⁻¹; in test [4], 2.39e-05 s⁻¹.
